Numbering of substitutions follows the chain as printed.
Assays:
[1] = target: T1, murine EphA2 on CT-26 cells (mouse, UniProt Q03145 26-977); assay: CLIA: scFv-decorated fluorescent NTA(Ni) liposomes on CT-26 cells, FACS
T1 construct: whole, on cells
Experimental: The concentration of liposomal phospholipid was then determined after acid digestion using spectrophotometric phosphomolybdate method. Prior to incubation with cells the liposomes were diluted to 0.4 mM phospholipid in Hank's Balanced Salt Solution (HBSS), and NiSO₄ was added to 0.1 mM. The hexahistidine scFvs were diluted into cell culture medium (see below) to the concentration of 25 μg/mL of scFv and mixed with equal volume of the liposome solution (“fluorescent NTA-liposome/scFv mixture”).
By measuring fluorescence of the cells prior to and after incubation/wash with imidazole, which disrupts His6/Ni complexes and thereby releases and removes external (but not internalized) histidine-tagged scFv, the percentage of Ab internalized is quantitated. The test cells (human cancer cell lines OVCAR-3 and U-251 and the murine cancer cell line CT-26) were grown in the adherent state in […] cell culture medium supplemented with 10% FBS, 1× penicillin/streptomycin, and L-glutamine, to 90% confluence and harvested using 0.25% trypsin-EDTA. […] The relative amounts of cell-associated liposomes were evaluated by FACS (Cy5 fluorescence channel). The “binding” amount included both cell surface-bound and internalized liposomes and was proportional to cell fluorescence without imidazole wash. […]

[2] = target: T2, His6-tagged recombinant human EphA2 protein (human, UniProt P29317 25-534); assay: BLI (Octet Red 96); His6-EphA2 on anti-His sensors; scFv-PEG-DSPE conjugate at 4.0 ug/ml after thermal stress
T2 construct: also called his-tagged recombinant, human EphA2; human EphA2 with c-terminal His6
T2 sequence (P29317 25-534 limits assumed): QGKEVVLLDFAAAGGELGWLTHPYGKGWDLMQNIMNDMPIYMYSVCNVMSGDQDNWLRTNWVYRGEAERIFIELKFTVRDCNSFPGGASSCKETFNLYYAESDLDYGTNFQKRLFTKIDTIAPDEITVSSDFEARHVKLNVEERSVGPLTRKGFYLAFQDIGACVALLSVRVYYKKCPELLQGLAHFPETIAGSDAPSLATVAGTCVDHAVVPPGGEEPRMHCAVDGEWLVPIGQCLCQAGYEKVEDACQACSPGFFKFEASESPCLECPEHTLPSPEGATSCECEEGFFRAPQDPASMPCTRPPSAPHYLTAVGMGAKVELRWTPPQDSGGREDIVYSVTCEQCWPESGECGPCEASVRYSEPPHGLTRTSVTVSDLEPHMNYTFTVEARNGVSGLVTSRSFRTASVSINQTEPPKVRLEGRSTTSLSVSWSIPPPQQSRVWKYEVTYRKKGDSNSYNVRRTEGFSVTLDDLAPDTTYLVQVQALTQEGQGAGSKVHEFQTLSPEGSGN
Text: (§1) A nucleic acid encoding human EphA2 with c-terminal His6 appended was cloned into expression vector pCEP4 (Invitrogen® # V044-50) and transiently expressed in FreeStyle™ 293 cells (Invitrogen® #K900001) following polyethylenenimine transfection. The His6-tagged recombinant human EphA2 protein was purified from the cell culture medium using Ni-NTA Sepharose™ resin (Quiagen®, USA). Anti-His sensors for the fortéBIO® Octet Red 96 system (fortéBIO®-Pall® #18-5116) were coated with his-tagged recombinant, human EphA2 at concentration of 10 μg/ml protein for 300 sec, and a background run was carried out in PBS for 60 sec. For scFv-PEG-DSPE conjugates, the sensors were then incubated with 2.5 μg/ml (Study 1) or 4.0 μg/ml (Study 2) of the conjugate in PBS, pH 7.4, and the slopes of association curves were determined between 3-13 seconds of incubation, corrected for the buffer-only background, and compared across the variants. ScFv-linked liposomes were incubated with the sensors in PBS at 0.025 mM of liposome phospholipid, the slopes of the association curves were determined between 3-20 seconds of incubation, corrected for the buffer-only background, and compared across the variants.
(§2) Results are shown below in Table 6, in which column A gives scFv identifiers; column B indicates percent yield of scFv/lipopolymer linker conjugates; column C gives percent scFv-conjugate (not liposome-bound) EphA2 binding on-rate; column D gives percent scFv-conjugated-liposome EphA2 binding on-rate; and columns E (Study 1) and F (study 2) give percent antigen binding on-rate remaining in the scFv-conjugate (not liposome-bound) following thermal stress.

[3] = target: T3, Staphylococcus aureus Protein A (Staphylococcus aureus, UniProt P38507 37-477); assay: Protein A binding measured as in Example 1, compared to TS1C
Experimental: (§3) Protein A binding for multiple samples was determined as follows: scFvs expressed by mammalian cells were obtained from cultures by centrifugation at 4000 g for 15 minutes to remove cells. The scFv titer in the supernatant was determined using Fortebio. Protein A binding was assayed using a 96 well Protein A plate (Protein A 96 well protein purification plate (GE Healthcare: Life Sciences, Protein A HP MultiTrap®) which contains Protein A-conjugated resin in wells with porous bottoms, allowing liquid in the wells to be collected from underneath via centrifugation or suction. Each well of the plate was washed with 1×PBS, and supernatant containing 250 μg of protein was loaded into each well. The supernatant is then separated from the Protein A resin using a vacuum manifold (Whatman®) with 10 mbar of pressure and the flow-through from each well separately collected into empty wells of a standard 96 well plate. The wells of the Protein A plate were then washed with 600 μL of 1×PBS (pH 7.6). To elute the resin-bound Ab, 200 μL of 0.1M acetic acid was added to each well and incubated at room temperature for 3-10 minutes. The plate was placed over a second plate to capture eluate and centrifuged at 100×g for 2 minutes, and 20 μL of 1M Tris, pH 8.0 was added to neutralize the Abs in the eluate. To determine the percentage of Protein A binding, the concentration of scFv remaining in the flow-through was compared to the amount of protein (250 ug) loaded originally.
(§4) The fold improvement in Protein A binding capacity (as compared to TS1C) was measured as described in Example 1.

[4] = target: T2, His6-tagged recombinant human EphA2 …; assay: BLI (Octet Red 96); His6-EphA2 on anti-His sensors; scFv-PEG-DSPE conjugate at 2.5 ug/ml after thermal stress
Text: as §1, §2

[5] = target: T2, His6-tagged recombinant human EphA2 …; assay: BLI (Octet Red 96); His6-EphA2 on anti-His sensors; slope of association curve of scFv-linked liposomes at 0.025 mM phospholipid; TS1C printed as 100
Text: as §1, §2

[6] = target: T2, His6-tagged recombinant human EphA2 …; assay: BLI (Octet Red 96); His6-EphA2 on anti-His sensors; slope of association curve of scFv-PEG-DSPE conjugate; TS1C printed as 100
Text: as §1, §2

[7] = target: T3, Staphylococcus aureus Protein A; assay: Protein A binding measured as in Example 1; TS1C is the reference
Experimental: as §3, with “The plate was placed over a second plate to capture eluate and centrifuged at 100×g for 2 minutes, and 20 μL of 1M Tris, pH 8.0 was added to neutralize the Abs in the eluate. To determine the percentage of Protein A binding, the concentration of scFv remaining in the flow-through was compared to the amount of protein (250 ug) loaded originally.” left out
as §4

T1 sequence (Q03145 26-977): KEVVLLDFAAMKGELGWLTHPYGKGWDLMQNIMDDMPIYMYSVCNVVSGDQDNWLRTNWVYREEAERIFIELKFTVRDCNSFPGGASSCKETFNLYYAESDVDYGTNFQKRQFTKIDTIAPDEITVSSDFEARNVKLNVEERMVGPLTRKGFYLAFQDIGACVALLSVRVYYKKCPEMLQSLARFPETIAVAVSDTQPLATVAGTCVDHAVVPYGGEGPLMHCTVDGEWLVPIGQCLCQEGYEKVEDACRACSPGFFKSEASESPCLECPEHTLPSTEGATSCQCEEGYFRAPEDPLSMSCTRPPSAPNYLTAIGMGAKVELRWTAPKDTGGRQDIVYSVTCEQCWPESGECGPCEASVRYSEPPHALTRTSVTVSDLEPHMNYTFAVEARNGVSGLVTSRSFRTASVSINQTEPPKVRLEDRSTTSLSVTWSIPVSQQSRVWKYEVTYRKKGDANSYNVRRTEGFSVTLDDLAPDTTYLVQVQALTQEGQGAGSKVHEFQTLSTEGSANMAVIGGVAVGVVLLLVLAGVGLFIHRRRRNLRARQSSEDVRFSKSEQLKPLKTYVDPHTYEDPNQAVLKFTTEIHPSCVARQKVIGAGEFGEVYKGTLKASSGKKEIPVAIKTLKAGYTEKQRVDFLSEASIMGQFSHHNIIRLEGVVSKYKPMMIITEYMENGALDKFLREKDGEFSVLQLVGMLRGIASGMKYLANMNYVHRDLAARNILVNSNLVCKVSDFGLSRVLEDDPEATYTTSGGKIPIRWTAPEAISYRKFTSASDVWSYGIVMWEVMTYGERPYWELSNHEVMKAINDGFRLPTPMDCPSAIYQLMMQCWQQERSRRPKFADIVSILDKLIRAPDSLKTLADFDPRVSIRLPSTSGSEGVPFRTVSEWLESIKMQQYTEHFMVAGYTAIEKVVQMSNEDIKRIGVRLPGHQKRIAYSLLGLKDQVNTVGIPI

B1: scFv-12 (scFv)
scFv: QVQLVQSGGGLVQPGGSLRLSCAASGFTFSSYAMHWVRQAPGKGLEWVAGISHPGDNTYYADSVKGRFTISRDNSKNTLYLQMNSLRAEDTAVYYCARASVGATGPFDIWGQGTLVTVSSASTGGGGSGGGGSGGGGSGGGGSSSELTQPPSVSVAPGQTVTITCQGDSLRSYYASWYQQKPGTAPKLLIYGENNRPSGVPDRFSGSSSGTSASLTITGAQAEDEADYYCNSRDSSGTHLTVFGGGTKLTVLG
Does B1 bind [1]?
Result: no binding

B2: scFv-3C (scFv)
scFv: QVQLVQSGGGLVQPGGSLRLSCAASGFTFSSYAMHWVRQAPGKGLEWVTVISPDGHNTYYADSVKGRFTISRDNSKNTLYLQMNSLRAEDTAVYYCARASVGATGPFDIWGQGTLVTVSSASTGGGGSGGGGSGGGGSGGGGSSSELTQPPSVSVAPGQTVTITCQGDSLRSYYASWYQQKPGTAPKLLIYGENNRPSGVPDRFSGSSSGTSASLTITGAQAEDEADYYCNSRDSSGTHLTVFGGGTKLTVLGGGSGGC
notes: also called clone 3
For B2, which “percent antigen binding on-rate remaining in the scFv-conjugate following thermal stress (Study 2)” value [2] is on record?
The value was 46.9%.

And the “Fold Improvement in Protein A Binding Capacity” value (from here on “Fold Improvement”) [3]?
The value was 6 fold.

What about the “percent antigen binding on-rate remaining in the scFv-conjugate following thermal stress (Study 1)” value [4] of the same binder?
The value was 56.5%.

What about the “percent scFv-conjugated-liposome EphA2 binding on-rate” value [5] of the same binder?
Its value is 119%.

What about the “percent scFv-conjugate (not liposome-bound) EphA2 binding on-rate” value [6] of the same binder?
The value was 112%.

B3: scFv-2C (scFv)
scFv: B2 scFv with T49S, D54A, H56R, T58K
notes: also called clone 2
B3 was tested. Which “percent antigen binding on-rate remaining in the scFv-conjugate following thermal stress (Study 2)” value [2] did it give?
The value was 26.9%.

And the “Fold Improvement” value [3]?
Its value is 5.5 fold.

What about the “percent antigen binding on-rate remaining in the scFv-conjugate following thermal stress (Study 1)” value [4] of the same binder?
The value was 44.6%.

What about the “percent scFv-conjugated-liposome EphA2 binding on-rate” value [5] of the same binder?
Its value is 117%.

And the “percent scFv-conjugate (not liposome-bound) EphA2 binding on-rate” value [6]?
The value was 105%.

B4: scFv-11C (scFv)
scFv: B2 scFv with T49A, P53H, D54H, H56S
notes: also called clone 11
With B4 as the binder, how does the “percent antigen binding on-rate remaining in the scFv-conjugate following thermal stress (Study 2)” value [2] read?
Its value is -0.09%.

And the “Fold Improvement” value [3]?
Its value is 8.5 fold.

And the “percent antigen binding on-rate remaining in the scFv-conjugate following thermal stress (Study 1)” value [4]?
The value was 1.6%.

And the “percent scFv-conjugated-liposome EphA2 binding on-rate” value [5]?
Its value is 120%.

What about the “percent scFv-conjugate (not liposome-bound) EphA2 binding on-rate” value [6] of the same binder?
The value was 109%.

B5: scFv-7C (scFv)
scFv: B2 scFv with T49S, D54A, H56P
notes: also called clone 7
What does the source list for B5?
percent antigen binding on-rate remaining in the scFv-conjugate following thermal stress (Study 2) [2]: 4.8%; Fold Improvement in Protein A Binding Capacity [3]: 10.3 fold; percent antigen binding on-rate remaining in the scFv-conjugate following thermal stress (Study 1) [4]: 5.8%; percent scFv-conjugated-liposome EphA2 binding on-rate [5]: 119%; percent scFv-conjugate (not liposome-bound) EphA2 binding on-rate [6]: 110%

B6: TS1C (scFv)
scFv: B2 scFv with T49A, P53Y, H56S, T58K
notes: also called parental clone TS1 (C form)
B6 was tested. Which “Fold Improvement” value [7] did it give?
The value was 1 fold.

What about the “percent antigen binding on-rate remaining in the scFv-conjugate following thermal stress (Study 2)” value [2] of the same binder?
Its value is 13%.

And the “percent antigen binding on-rate remaining in the scFv-conjugate following thermal stress (Study 1)” value [4]?
Its value is 25.2%.

And the “percent scFv-conjugated-liposome EphA2 binding on-rate” value [5]?
The value was 100%.

What about the “percent scFv-conjugate (not liposome-bound) EphA2 binding on-rate” value [6] of the same binder?
Its value is 100%.

B7: scFv-4C (scFv)
scFv: B2 scFv with D54H, H56R, T58K
notes: also called clone 4
What does the source list for B7?
percent antigen binding on-rate remaining in the scFv-conjugate following thermal stress (Study 2) [2]: 5.6%; Fold Improvement in Protein A Binding Capacity [3]: 5.8 fold; percent antigen binding on-rate remaining in the scFv-conjugate following thermal stress (Study 1) [4]: 8.6%; percent scFv-conjugated-liposome EphA2 binding on-rate [5]: 118%; percent scFv-conjugate (not liposome-bound) EphA2 binding on-rate [6]: 97.3%

B8: scFv-10C (scFv)
scFv: B2 scFv with T49S, V50A, D54P
notes: also called clone 10
What does the source list for B8?
percent antigen binding on-rate remaining in the scFv-conjugate following thermal stress (Study 2) [2]: 98.8%; Fold Improvement in Protein A Binding Capacity [3]: 12.3 fold; percent antigen binding on-rate remaining in the scFv-conjugate following thermal stress (Study 1) [4]: 88.9%; percent scFv-conjugated-liposome EphA2 binding on-rate [5]: 110%; percent scFv-conjugate (not liposome-bound) EphA2 binding on-rate [6]: 104%
